Data as given in the Human Domainome abundance scans (Beltran et al. 2025).
± gives the uncertainty stated by the source.

B1: POU domain, class 3, transcription factor 4, residues 280 to 335; numbered along this chain, P49335 (parent)
chain: KKRTSIEVSVKGVLETHFLKCPKPAAQEISSLADSLQLEKEVVRVWFCNRRQKEKR

Variants of: B1
Assay: abundance fitness (aPCA) (normalised: wild type 0, dead -1); higher = more abundant; growth selection in yeast, the domain comes from the species named
Conditions: Homo sapiens
KKRTSIEVSVKGVLETHFLMCPKPAAQEISSLADSLQLEKEVVRVWFCNRRQKEKR [K20M] showed an abundance fitness of -0.812 ± 0.26.
KKRTSIEVSVKGVLETHFLACPKPAAQEISSLADSLQLEKEVVRVWFCNRRQKEKR [K20A] gave an abundance fitness of -0.339 ± 0.15.
In the case of KKRTSIEVSVKGVLETHFLPCPKPAAQEISSLADSLQLEKEVVRVWFCNRRQKEKR [K20P], the abundance fitness is reported as -0.805 ± 0.22.
Variant KKRTSIEVSVKGVLETHFLCCPKPAAQEISSLADSLQLEKEVVRVWFCNRRQKEKR [K20C] has an abundance fitness of -0.735 ± 0.18.
Variant KKRTSIEVSVKGVLETHFLKPPKPAAQEISSLADSLQLEKEVVRVWFCNRRQKEKR [C21P] has an abundance fitness of -0.483 ± 0.21.
In the case of KKRTSIEVSVKGVLETHFLKGPKPAAQEISSLADSLQLEKEVVRVWFCNRRQKEKR [C21G], the abundance fitness is reported as -0.724 ± 0.15.
In the case of KKRTSIEVSVKGVLETHFLKLPKPAAQEISSLADSLQLEKEVVRVWFCNRRQKEKR [C21L], the abundance fitness is reported as -0.419 ± 0.12.
Variant KKRTSIEVSVKGVLETHFLKAPKPAAQEISSLADSLQLEKEVVRVWFCNRRQKEKR [C21A] has an abundance fitness of -0.756 ± 0.18.
Variant KKRTSIEVSVKGVLETHFLKTPKPAAQEISSLADSLQLEKEVVRVWFCNRRQKEKR [C21T] has an abundance fitness of -0.336 ± 0.17.
KKRTSIEVSVKGVLETHFLKDPKPAAQEISSLADSLQLEKEVVRVWFCNRRQKEKR [C21D] gave an abundance fitness of 0.059 ± 0.21.
In the case of KKRTSIEVSVKGVLETHFLKHPKPAAQEISSLADSLQLEKEVVRVWFCNRRQKEKR [C21H], the abundance fitness is reported as -0.533 ± 0.2.
In the case of KKRTSIEVSVKGVLETHFLKNPKPAAQEISSLADSLQLEKEVVRVWFCNRRQKEKR [C21N], the abundance fitness is reported as 0.31 ± 0.19.
Variant KKRTSIEVSVKGVLETHFLKIPKPAAQEISSLADSLQLEKEVVRVWFCNRRQKEKR [C21I] has an abundance fitness of -0.58 ± 0.21.
With KKRTSIEVSVKGVLETHFLKQPKPAAQEISSLADSLQLEKEVVRVWFCNRRQKEKR [C21Q] the abundance fitness was 0.265 ± 0.2.
Work on KKRTSIEVSVKGVLETHFLKMPKPAAQEISSLADSLQLEKEVVRVWFCNRRQKEKR [C21M] yielded an abundance fitness of -0.723 ± 0.21.
Work on KKRTSIEVSVKGVLETHFLKYPKPAAQEISSLADSLQLEKEVVRVWFCNRRQKEKR [C21Y] yielded an abundance fitness of -0.898 ± 0.25.
KKRTSIEVSVKGVLETHFLKRPKPAAQEISSLADSLQLEKEVVRVWFCNRRQKEKR [C21R] gave an abundance fitness of -0.742 ± 0.15.
KKRTSIEVSVKGVLETHFLKSPKPAAQEISSLADSLQLEKEVVRVWFCNRRQKEKR [C21S] showed an abundance fitness of -0.072 ± 0.12.
Work on KKRTSIEVSVKGVLETHFLKEPKPAAQEISSLADSLQLEKEVVRVWFCNRRQKEKR [C21E] yielded an abundance fitness of -0.546 ± 0.28.
For KKRTSIEVSVKGVLETHFLKKPKPAAQEISSLADSLQLEKEVVRVWFCNRRQKEKR [C21K], the abundance fitness was -0.725 ± 0.33.
For KKRTSIEVSVKGVLETHFLKWPKPAAQEISSLADSLQLEKEVVRVWFCNRRQKEKR [C21W], the abundance fitness was -0.846 ± 0.22.
KKRTSIEVSVKGVLETHFLKVPKPAAQEISSLADSLQLEKEVVRVWFCNRRQKEKR [C21V] gave an abundance fitness of -0.781 ± 0.16.
KKRTSIEVSVKGVLETHFLKCPKGAAQEISSLADSLQLEKEVVRVWFCNRRQKEKR [P24G] gave an abundance fitness of -0.842 ± 0.4.
In the case of KKRTSIEVSVKGVLETHFLKCPKLAAQEISSLADSLQLEKEVVRVWFCNRRQKEKR [P24L], the abundance fitness is reported as -0.753 ± 0.26.
In the case of KKRTSIEVSVKGVLETHFLKCPKHAAQEISSLADSLQLEKEVVRVWFCNRRQKEKR [P24H], the abundance fitness is reported as -0.688 ± 0.47.
With KKRTSIEVSVKGVLETHTLKCPKPAAQEISSLADSLQLEKEVVRVWFCNRRQKEKR [F18T] the abundance fitness was -0.732 ± 0.18.
With KKRTSIEVSVKGVLETHVLKCPKPAAQEISSLADSLQLEKEVVRVWFCNRRQKEKR [F18V] the abundance fitness was -0.56 ± 0.11.
With KKRTSIEVSVKGVLETHWLKCPKPAAQEISSLADSLQLEKEVVRVWFCNRRQKEKR [F18W] the abundance fitness was -0.485 ± 0.13.
For KKRTSIEVSVKGVLETHYLKCPKPAAQEISSLADSLQLEKEVVRVWFCNRRQKEKR [F18Y], the abundance fitness was -0.195 ± 0.18.
KKRTSIEVSVKGVLETHFRKCPKPAAQEISSLADSLQLEKEVVRVWFCNRRQKEKR [L19R] gave an abundance fitness of -0.236 ± 0.1.
Variant KKRTSIEVSVKGVLETHFGKCPKPAAQEISSLADSLQLEKEVVRVWFCNRRQKEKR [L19G] has an abundance fitness of -0.504 ± 0.12.
With KKRTSIEVSVKGVLETHFNKCPKPAAQEISSLADSLQLEKEVVRVWFCNRRQKEKR [L19N] the abundance fitness was -0.343 ± 0.24.
KKRTSIEVSVKGVLETHFIKCPKPAAQEISSLADSLQLEKEVVRVWFCNRRQKEKR [L19I] showed an abundance fitness of -0.441 ± 0.32.
In the case of KKRTSIEVSVKGVLETHFAKCPKPAAQEISSLADSLQLEKEVVRVWFCNRRQKEKR [L19A], the abundance fitness is reported as -0.187 ± 0.14.
KKRTSIEVSVKGVLETHFMKCPKPAAQEISSLADSLQLEKEVVRVWFCNRRQKEKR [L19M] gave an abundance fitness of 0.039 ± 0.2.
Variant KKRTSIEVSVKGVLETHFCKCPKPAAQEISSLADSLQLEKEVVRVWFCNRRQKEKR [L19C] has an abundance fitness of -0.385 ± 0.16.
Variant KKRTSIEVSVKGVLETHFKKCPKPAAQEISSLADSLQLEKEVVRVWFCNRRQKEKR [L19K] has an abundance fitness of -0.461 ± 0.23.
KKRTSIEVSVKGVLETHFPKCPKPAAQEISSLADSLQLEKEVVRVWFCNRRQKEKR [L19P] showed an abundance fitness of -0.774 ± 0.26.
For KKRTSIEVSVKGVLETHFFKCPKPAAQEISSLADSLQLEKEVVRVWFCNRRQKEKR [L19F], the abundance fitness was -0.941 ± 0.3.
In the case of KKRTSIEVSVKGVLETHFYKCPKPAAQEISSLADSLQLEKEVVRVWFCNRRQKEKR [L19Y], the abundance fitness is reported as -0.518 ± 0.29.
Variant KKRTSIEVSVKGVLETHFTKCPKPAAQEISSLADSLQLEKEVVRVWFCNRRQKEKR [L19T] has an abundance fitness of -0.019 ± 0.19.
KKRTSIEVSVKGVLETHFSKCPKPAAQEISSLADSLQLEKEVVRVWFCNRRQKEKR [L19S] showed an abundance fitness of -0.191 ± 0.14.
For KKRTSIEVSVKGVLETHFVKCPKPAAQEISSLADSLQLEKEVVRVWFCNRRQKEKR [L19V], the abundance fitness was -0.437 ± 0.13.
For KKRTSIEVSVKGVLETHFDKCPKPAAQEISSLADSLQLEKEVVRVWFCNRRQKEKR [L19D], the abundance fitness was -0.363 ± 0.28.
For KKRTSIEVSVKGVLETHFWKCPKPAAQEISSLADSLQLEKEVVRVWFCNRRQKEKR [L19W], the abundance fitness was -0.624 ± 0.2.
In the case of KKRTSIEVSVKGVLETHFEKCPKPAAQEISSLADSLQLEKEVVRVWFCNRRQKEKR [L19E], the abundance fitness is reported as -0.391 ± 0.18.
KKRTSIEVSVKGVLETHFQKCPKPAAQEISSLADSLQLEKEVVRVWFCNRRQKEKR [L19Q] gave an abundance fitness of -0.045 ± 0.22.
